These results are taken from patent publication US20220281982A1.

The assay has as its target NKG2D (human) (UniProt P26718). Nature of the assay: cell-based or functional assay.
Sequence of UniProt P26718 (P26718 whole entry): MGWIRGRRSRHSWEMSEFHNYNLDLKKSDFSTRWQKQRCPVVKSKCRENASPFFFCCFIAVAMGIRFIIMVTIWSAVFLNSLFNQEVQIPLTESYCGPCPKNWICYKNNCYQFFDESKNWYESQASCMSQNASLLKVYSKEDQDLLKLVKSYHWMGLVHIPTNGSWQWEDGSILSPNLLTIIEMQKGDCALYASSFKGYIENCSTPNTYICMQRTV

B1: anti-NKG2D-anti-CS1 bispecific antibody (bispecific antibody, part only; not given: anti-CS1 scFv and linkers, part only)
chain, part: QVQLVESGGGLVKPGGSLRLSCAASGFTFSSYGMHWVRQAPGKGLEWVAFIRYDGSNKYYADSVKGRFTISRDNSKNTLYLQMNSLRAEDTAVYYCAKDRGLGDGTYFDYWGQGTTVTVSSQSALTQPASVSGSPGQSITISCSGSSSNIGNNAVNWYQQLPGKAPKLLIYYDDLLPSGVSDRFSGSKSGTSAFLAISGLQSEDEADYYCAAWDDSLNGPVFGGGTKLTVLPSGQAGAAASESLFVSNHAYHHHHHH
Molecule B1 displayed a Ki67 expression of T cells cultured without IL-2 of 80%.
